Source: publication PMC3413138
Read-outs that look alike come from different tables or passages of the source.

B1: COX-2 3'-UTR U-2 (ssRNA)
RNA: AAGUCUAAUGAUCAUAUUUAUUUAUUUAUAUGAACCAUGUCUAUUAAUUUAAUUAUUUAAUAAUAUUUAUAUUAAACUCCUUAUGUUACUUAACAUCUUCUGUAACAGAAGUCAGUACUCCUGUUGCGGAGAAAGGAGUCAUACUUGUGAAGACUUUUAUGUCACUACUCUAAAGAUUUUGCUGUUGC
B2: COX-2 3'-UTR U-4 (ssRNA)
RNA: UGUAACAGAAGUCAGUACUCCUGUUGCGGAGAAAGGAGUCAUACUUGUGAAGACUUUUAUGUCACUACUCUAAAGAUUUUGCUGUUGCUGUUAAGUUUGG
B3: COX-2 3'-UTR U-3 (ssRNA)
RNA: GCGGAGAAAGGAGUCAUACUUGUGAAGACUUUUAUGUCACUACUCUAAAGAUUUUGCUGUUGCUGUUAAGUUUGGAAAACAGUUUUUAUUCUGUUUUAUAAACCAGAGAGAAAUGAGUUUUGACGUCUUUUUACUUGAAUUUCAACUUAUAUUAUAAGGACGAAAGUAAAGAUGUUUGAAUACUUAAACACUAUCACAAGAUGCCAA
B4: COX-2 3'-UTR U-1 (ssRNA)
RNA: AAGUCUAAUGAUCAUAUUUAUUUAUUUAUAUGAACCAUGUCUAUUAAUUUAAUUAUUUAAUAAUAUUUAUAUUAAACUCCUUAUGUUACUUAACAUCUUCUGUAACAGAAGUCAGUACUCCUGUUGCGGAGAAAGGAGUCAUACUUGUGA
B5: negative control NC RNA (ssRNA)
RNA: CAUAGCUCAUUAUACCCUCCUGGGCUCAAGCAAUCCCCCUAACUCUGCCUCCCCAGUAGCUAGGACCACAGGCAUACACC

How the values were obtained:
Test in all cases: SPR
HuR = HuR (UniProt Q15717 1-326)
beta-catenin FL [1] = molecular target: T1, beta-catenin FL (UniProt P35222 1-781)
beta-catenin FL [2] = molecular target: T1, beta-catenin FL; remark: listed apart in the source
beta-catenin FL [3] = molecular target: T1, beta-catenin FL; remark: listed apart in the source

T1 sequence (P35222 whole entry): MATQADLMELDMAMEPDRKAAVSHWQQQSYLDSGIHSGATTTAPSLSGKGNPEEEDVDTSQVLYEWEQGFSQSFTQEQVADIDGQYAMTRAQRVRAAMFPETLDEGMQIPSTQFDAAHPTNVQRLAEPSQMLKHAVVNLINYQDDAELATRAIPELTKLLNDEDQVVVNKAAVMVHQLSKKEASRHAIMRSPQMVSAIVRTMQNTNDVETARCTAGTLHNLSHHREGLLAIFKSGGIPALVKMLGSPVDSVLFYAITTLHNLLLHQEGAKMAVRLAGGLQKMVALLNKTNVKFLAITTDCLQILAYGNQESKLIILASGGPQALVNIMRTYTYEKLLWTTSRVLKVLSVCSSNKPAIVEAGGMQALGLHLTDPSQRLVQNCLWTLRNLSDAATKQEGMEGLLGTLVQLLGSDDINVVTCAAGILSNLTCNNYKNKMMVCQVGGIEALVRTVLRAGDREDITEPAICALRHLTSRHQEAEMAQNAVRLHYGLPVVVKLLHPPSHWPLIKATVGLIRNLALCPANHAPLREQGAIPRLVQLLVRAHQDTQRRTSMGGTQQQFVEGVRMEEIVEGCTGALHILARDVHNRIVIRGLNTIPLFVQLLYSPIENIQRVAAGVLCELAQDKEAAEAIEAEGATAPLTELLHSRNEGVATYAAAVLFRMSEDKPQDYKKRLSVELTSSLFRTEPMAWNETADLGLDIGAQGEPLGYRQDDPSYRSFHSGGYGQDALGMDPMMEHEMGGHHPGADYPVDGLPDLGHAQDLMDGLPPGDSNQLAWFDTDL
HuR, sequence (Q15717 whole entry): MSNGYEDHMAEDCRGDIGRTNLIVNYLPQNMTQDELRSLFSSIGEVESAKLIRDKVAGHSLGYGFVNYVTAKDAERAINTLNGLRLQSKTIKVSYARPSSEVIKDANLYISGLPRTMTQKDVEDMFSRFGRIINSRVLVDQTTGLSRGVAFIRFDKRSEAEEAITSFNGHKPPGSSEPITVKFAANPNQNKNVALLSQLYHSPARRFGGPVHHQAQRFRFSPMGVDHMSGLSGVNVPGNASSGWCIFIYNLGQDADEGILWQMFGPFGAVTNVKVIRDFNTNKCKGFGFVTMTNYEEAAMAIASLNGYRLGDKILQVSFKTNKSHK

| Binder | Kd (HuR) [nM] | Kd (beta-catenin FL [1]) [nM] | Kd (beta-catenin FL [2]) [nM] | binding result (beta-catenin FL [3]) |
| --- | --- | --- | --- | --- |
| B1 | 81.3 | 158 | – | – |
| B2 | 3510 | – | 131 | – |
| B3 | – | 2600 | – | – |
| B4 | 33.4 | – | – | – |
| B5 | – | – | – | no binding |
